# From patent US20210253725A1 (BIONTECH, published 2021)
# T1: CD134 expressed on the cell surface of HT1080_OX40 cells (human, UniProt P43489 29-277)
# T1 construct: whole, on cells; species not restated for the HT1080 transfectant
# T1 sequence (looked up): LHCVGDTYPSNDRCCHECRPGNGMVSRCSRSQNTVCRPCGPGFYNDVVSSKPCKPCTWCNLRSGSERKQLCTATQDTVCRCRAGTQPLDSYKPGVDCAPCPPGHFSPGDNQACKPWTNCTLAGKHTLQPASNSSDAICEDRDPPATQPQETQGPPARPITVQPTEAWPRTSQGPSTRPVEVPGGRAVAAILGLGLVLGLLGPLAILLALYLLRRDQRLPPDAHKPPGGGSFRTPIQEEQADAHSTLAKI
# T2: CD134 protein (His-tagged, Sino Biological Inc. 10481-H08H) (human, UniProt P43489 29-216)
# T2 construct: bought protein coated on ELISA plates; also called OX40; TNFRSF4; not shown: His tag
# T2 sequence (looked up): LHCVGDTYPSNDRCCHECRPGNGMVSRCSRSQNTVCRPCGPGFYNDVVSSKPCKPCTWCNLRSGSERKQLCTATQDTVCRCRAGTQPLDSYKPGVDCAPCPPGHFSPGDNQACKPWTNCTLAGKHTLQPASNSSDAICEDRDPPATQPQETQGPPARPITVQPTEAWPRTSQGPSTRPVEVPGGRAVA
# What was measured:
# [1] = biological target: T1, CD134 expressed on the cell surface of …; assay: HT1080_OX40 cells, imaging
# [2] = biological target: T1, CD134 expressed on the cell surface of …; assay: cell-based or functional assay
# [3] = biological target: T2, CD134 protein (His-tagged, Sino …); assay: ELISA, coated His-tagged CD134
# Also: test concentration or dose not given here.
Binder,Cellular binding assay [RFU] [1],Functional assay Cross-linked by F(ab′)2 fragment IL-8 [2],Functional assay IL-8 [2],ELISA [abs. corr.] [3]
"P018.S.11.A.B03 (antibody, V domains shown, V regions on human Ig constant parts; also called AB134_24) VH: QSLEESGGRLVTPGTPLTLTCTVSGFSLSNYAMSWVRQAPGKGLEWIAIISGSGSTNYASWAKGRFTLSKASTTVALKITSPTTEDTATYFCGRGRDDDYAWDLWGQGTLVTVSS VL: DVVMTQTPASVSEPVGGTVTIKCQASQTISNYLAWYQQKPGQPPKLLIYAASTLASGVSSRFRGSGSGTEFSLTISDLESADAATYYCHCTYYDSSYHGFGGGTEVVVK",527 RFU,2.1 abs. corr.,-0.075 abs. corr.,2.66 abs. corr.
"P018.S.11.A.G05 (antibody, V domains shown, V regions on human Ig constant parts; also called AB134_45) VH: QSLEESGGDLVKPGASLTLTCAASGFSLNNWVMCWVRQAPGKGLEWIACIDIVGSGSTHYATWAKGRFTMSKASSITVTLQMTSLTAADTATYFCARGVNGDGNLNLWGPGTLVTVSS VL: DVVMTQTPASVSEPVGGAVTIKCQASETISNYLAWYQQKPGQRPKLLIYGASNLESGVPSRFKGSGSGTEFTLTISDLESADAATYYCQCTYVGDSYTAFGGGTEVVVK",531 RFU,2.05 abs. corr.,0.031 abs. corr.,2.36 abs. corr.
"P018.S.12.A.A06 (antibody, V domains shown, V regions on human Ig constant parts; also called AB134_55) VH: QSVEESGGRLVTPGTPLTLTCTVSGFSLSSFAMTWVRQAPGKGLEWIGIISSSGTTYYASWAKGRFTISKTSTTVDLRITSPTTEDTATYFCASHYDDYGDSDALDPWGPGTLVTVSS VL: AAVMTQTPSPVSAAVGGTVTINCQASEDIYSNLAWFQQKPGQPPKLLIYRASTLASGVPSRFSGSGSGTEFTLTISGLQSDDAATYYCLGVDRHISDRAFGGGTEVVVK",515 RFU,2.04 abs. corr.,0.062 abs. corr.,1.61 abs. corr.
"P018.S.11.A.H05 (antibody, V domains shown, V regions on human Ig constant parts; also called AB134_48) VH: QQRLVESGGGLVKPGASLTLTCTASGFSFSSGYDMCWVRQAPGKGLEWVGCIDTATDTIYYASWAPGRFTISKTSSTMVTLQMTSLTAADTATYFCARSVGGVDYAIDLWGPGTLVTVSS VL: AYDMTQTPVSVEVPVGGTVTIKCQASQNIGSRLVWYQQKPGQSPKFLIYYASNLASGVSSRFKGSGSGTQFTLTISDVQSDNAATYYCQQTYSYSDVDDTFGGGTEVVVK",478 RFU,2.01 abs. corr.,1.21 abs. corr.,1.69 abs. corr.
"P018.S.11.A.B06 (antibody, V domains shown, V regions on human Ig constant parts; also called AB134_27) VH: QSVEESGGRLVTPGTPLTLTCTASGFSLINYNMGWVRQAPGEGLEWIGTILTDGTVYYSNWAKGQFTISKTSTTVDLEMTSPTNEDTATYFCARDYPSYIAFDLWGPGTLVTVSS VL: AQVLTQTASSVSAAVGGTVTINCQASQSVYNDDNLAWLQQKPGQPPKLLIYGASSLASGVPSRFSGSGSGTEFTLTISGVQSEDAAIYYCQGGGFSSGWYWAFGGGTEVVVK",441 RFU,2.1 abs. corr.,0.403 abs. corr.,2.13 abs. corr.
"P018.S.12.A.B06 (antibody, V domains shown, V regions on human Ig constant parts; also called AB134_60) VH: QEQLEESGGGLVQPEGSLTLTCTASGFSFSYYWMCWVRQAPGKGLEWSACIGTGSGSTYYATWAKGRFTISKTSSTTVTLQMTSLTAADTATYFCARDWGIYSSDAYYMDYFNLWGPGTLVTVSS VL: AFELTQTPASVEAAVGGTVTIKCQASQSIGSYLAWYQQKPGQPPKPLIYEASKLASGVSSRFKGSGSGTQFTLTISGVESADAATYYCQQGGISTNVQNAFGGGTEVVVK",451 RFU,2.07 abs. corr.,1.84 abs. corr.,1.4 abs. corr.
"P018.S.11.A.E02 (antibody, V domains shown, V regions on human Ig constant parts; also called AB134_33) VH: QEQLEESGGDLVKPEGSLTLTCTASGFSFNVDYYMCWVRQAPGKGLEWIACIYVGSEGSTYYASWAKGRFTISKTSSTTVTLQMTSLTAADTATYFCARHYAGYAGYNYATDYYFTLWGPGTLVTVSS VL: DIVMTQTPSSVSAGVGGTVTINCQASQSVTNFLSWYQQKPGQPPKLLIYGASTLASGVPSRFKGSGSGTEFTLTISGMKAEDVATYYCQSGYYSATFGAGTKVEIK",525 RFU,2.04 abs. corr.,0.214 abs. corr.,2.65 abs. corr.
"P018.S.12.A.B03 (antibody, V domains shown, V regions on human Ig constant parts; also called AB134_58) VH: QSLEESGGRLVTPGTPLTLICTVSGIDLSSGAMGWVRQAPGKGLEYIGYIYTGSGTTSYASWVNGRFTISMTSTTVDLKITSPTTEDTATYFCARDAASSYWGHFTLWGQGTLVTVSS VL: DIVMTQTPASVEAAVGGTVTIKCQASENIYSSLAWYQQKPGQPPKLLIYRTSTLASGVPSRFKGSGSGTQFTLTISDLESDDAATYYCQSYYHNSGGGYDYGFGGGTEVVAK",446 RFU,2.05 abs. corr.,1.07 abs. corr.,1.18 abs. corr.
"P018.S.12.A.C06 (antibody, V domains shown, V regions on human Ig constant parts; also called AB134_66) VH: QSVEESGGRLVKPDETLTLICTVSGIDLSINVVGWVRQAPGEGLEWIGDISSHGDTIYATWAKGRFTISKTSTTVDLKMTSLTASDTATYFCARYVGDGYYDLWGPGTLVTVSS VL: AYDMTQTPASVSAAVGGTVTINCQASQSISNLLAWYQQKPGQRPKLLIYDTSKLASGVPSRFKGSGSGTQFTLTISDLESADAATYYCQQSYSSSNIANLFGGGTEVVVK",525 RFU,2.1 abs. corr.,0.881 abs. corr.,2.35 abs. corr.
"P018.S.12.A.B01 (antibody, V domains shown, V regions on human Ig constant parts; also called AB134_56) VH: QEQLVESGGGLVQPEGSLTLTCKASGFDFSYNSMCWVRQAPGKGLEWITCIYNGDGSTWYASWAKGRFTISKTSSTTVTLQMTSLTAADTATYFCTRDFGLWGPGTLVTVSS VL: ALVMTQTPSSTSEPVGGTVTINCQASESVANHKQLSWYQQKPGQPPKVLIYYASTLASGVPSRFKGSGSGTQFTLTISDVVSDDAATYYCSGYKSISTDGNAFGGGTEVVVK",607 RFU,2.11 abs. corr.,0.396 abs. corr.,2.34 abs. corr.
"P018.S.11.A.A03 (antibody, V domains shown, V regions on human Ig constant parts; also called AB134_20) VH: QSLEESGGDLVKPGASLTLPCTASGFTLSGYWMCWVRQAPGKGLEWIGCIYNGDGSTYYASWAKGRFTISKTSSTTVTLQMTSLTAADTATYFCARDSNGWGAYGLWGPGTLVTVSS VL: AIEMTQTPSSVSAAVGGTVTIDCQASQSIGSYLSWYQQKPGQPPKLLIYDASDLASGVPSRFSGSGSGTEFTLTISGVQSDDAATYYCQGGYYSSATEIAFGGGTEVVVK",459 RFU,2.01 abs. corr.,1.38 abs. corr.,1.93 abs. corr.

# More lines, now with the values ahead:
Cellular binding assay [RFU] [1],Functional assay Cross-linked by F(ab′)2 fragment IL-8 [2],Functional assay IL-8 [2],ELISA [abs. corr.] [3],Binder
559 RFU,1.83 abs. corr.,0.707 abs. corr.,1.34 abs. corr.,"P018.S.12.A.D03 (antibody, V domains shown, V regions on human Ig constant parts; also called AB134_68) VH: QERLVESGGGLVKPGASLTLTCTASGFSFSSGYDMCWVRQAPGKGLEWVGCIDTGTGTIYYASWAPGRFTISETSSTMVTLQMTSLTAADTATYFCARSVGGYDYAIDLWGPGTLVTVSS VL: AYDMTQTPASVEVPVGGTVTIKCQASQNIGSRLVWYQQKPGQSPKFLIYYASNLASGVSSRFKGSGSGTQFTLTISDVQSDNAATYYCQQTYSYSDVDDTFGGGTEVVVK"
500 RFU,2.05 abs. corr.,0.374 abs. corr.,1.65 abs. corr.,"P018.S.12.A.F06 (antibody, V domains shown, V regions on human Ig constant parts; also called AB134_82) VH: QSLEESGGDLVKPGGTLTLTCKASGIDFNNYYVCWVRQAPGKGLEWVGCIYTGSGSTYYASWAKGRFTITRSSSTTVTLQMTSLTAADTATYFCARPEFYDTYGYAGYGYATPNYFNFWGPGTLVTVSS VL: AAVLTQTPSPVSAAVGGTVTIKCQASQSVYNNNLLSWYQQKPGQPPKLLMYDASNLASGVPDRFSGSGSGTQFTLTISDLESDDAATYYCLGGYDDDADYNAFGGGTEVVVA"
523 RFU,2.11 abs. corr.,0.132 abs. corr.,1.93 abs. corr.,"P018.S.12.A.E05 (antibody, V domains shown, V regions on human Ig constant parts; also called AB134_76) VH: QSVEESGGRLVTPGGSLTLTCTASGFDLSSYATSWVRQAPGKGLEWIGIIYGSGSTTYASWVKGQFTISKSSSTTVDLKMTSLTTEDTATYFCARGLVASTDNYNLWGPGTLVTVSS VL: AAVLTQTPSPVSVAVGGTVTINCQASQSVYNNNYLAWFQQKPGQPPKLLIYLASILASGVPSRFKGSGSGTQFTLTINGVQSDDAATYYCLGDVGGGERVFGGGTEVVVK"
463 RFU,2.04 abs. corr.,0.439 abs. corr.,2.55 abs. corr.,"P018.S.12.A.E01 (antibody, V domains shown, V regions on human Ig constant parts; also called AB134_72) VH: QSVEESGGRLVTPGGSLTLTCTVSGIDLSSADMSWVRQAPGEGLEYIGWINNVGSAYYASWAKGRFSISKTSSTTVDLKVTSLTTEDTATYFCVRGYWLDLWGQGTLVTVSS VL: AAVLTQTPSPVSAAVGGTVSISCQSSVNVYNNNYLAWFQQKPGQPPKLLIYAASTLPSGVSSRFSGNGSGTEFTLTISGVQSDDAATYYCVGYYSSTDDNGFGGGTEVVVK"
452 RFU,2.1 abs. corr.,0.209 abs. corr.,2.52 abs. corr.,"P018.S.12.A.G03 (antibody, V domains shown, V regions on human Ig constant parts; also called AB134_85) VH: QSLEESGGRLVTPGGSLTLTCTLSGIDLSSNAISWVRQAPGKGLEWIGIIFPGDNIYYATWAKGRFTISKTSTTVDLKMTSLRTADTATYFCARYHADDSVDLWGPGTLVTVSS VL: AYDMTQTPASVSEPVGGTVTIKCQASQSINGWLSWYQQKPGQRPRLLIYRASDLAPGVSSRFKGSGSGTQFTLTISDVESADAATYYCHLGDIYSNIDYVFGGGTEVVVK"
